Here are results for 2 substances from paper doi:10.1101/2024.02.28.582571.

The target in this assay is microtubules assembled from purified bovine brain tubulin (bovine) (UniProt Q6B856). Kind of assay: optical trap rupture force assay; kinetochores held on polystyrene beads through α-penta-His antibody; dynamic microtubules grown from coverslip-anchored GMPCPP seeds with bovine brain tubulin in BRB80, 1 mM GTP; 23 °C; force ramp 0.25 pN/s.
Chain of UniProt Q6B856 (Q6B856 whole entry, looked up): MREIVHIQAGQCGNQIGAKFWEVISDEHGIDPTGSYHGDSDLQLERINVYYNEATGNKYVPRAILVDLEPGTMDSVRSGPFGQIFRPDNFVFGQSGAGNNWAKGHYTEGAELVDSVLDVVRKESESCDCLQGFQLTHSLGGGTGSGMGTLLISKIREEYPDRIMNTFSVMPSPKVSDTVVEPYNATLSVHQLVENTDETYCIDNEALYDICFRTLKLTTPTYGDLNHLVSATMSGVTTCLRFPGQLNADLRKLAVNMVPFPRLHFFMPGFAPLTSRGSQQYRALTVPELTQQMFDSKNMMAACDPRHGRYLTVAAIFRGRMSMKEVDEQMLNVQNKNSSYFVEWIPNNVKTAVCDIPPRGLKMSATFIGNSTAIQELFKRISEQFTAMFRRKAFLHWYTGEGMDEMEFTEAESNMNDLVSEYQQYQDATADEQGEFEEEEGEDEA

Substance “native kinetochores purified from Kluyveromyces marxianus via Dsn1-6His-3M3DK (from UniProt A0ABX6F0Z3 1-547) (complex)” showed a median rupture force of 7.5 pN.
Then “native kinetochores purified from Saccharomyces cerevisiae via Dsn1-6His-3M3DK (from UniProt P40568 1-576) (complex)”, with 7.2 pN.
